± gives the standard deviation of the averaged measurements.
Legend:
MCF7 = test: percentage of EdU-negative (G0-arrested) nuclei per well, 72 h; higher = more G0 arrest; conditions: reference: sequence is the full UniProt precursor, the tested protein was the secreted form or ectodomain
hTERT-HMEC = test: as above; conditions: reference: sequence is the full UniProt precursor, the tested protein was the secreted form or ectodomain
[1] = protein concentration 0.0105714 µM
[2] = protein concentration 0.105714 µM
[3] = protein concentration 0.0225 µM
[4] = protein concentration 0.02179 µM
[5] = protein concentration 0.2179 µM
[6] = protein concentration 0.0165714 µM
[7] = protein concentration 0.165714 µM
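Also: secreted proteins added to cultured cells, EdU pulse at the end, nuclei found by Hoechst imaging, EdU status from nuclear versus surrounding ring intensity ratio, PBS as neutral control.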

Q8WXD2, sequence (chain, as listed by the source): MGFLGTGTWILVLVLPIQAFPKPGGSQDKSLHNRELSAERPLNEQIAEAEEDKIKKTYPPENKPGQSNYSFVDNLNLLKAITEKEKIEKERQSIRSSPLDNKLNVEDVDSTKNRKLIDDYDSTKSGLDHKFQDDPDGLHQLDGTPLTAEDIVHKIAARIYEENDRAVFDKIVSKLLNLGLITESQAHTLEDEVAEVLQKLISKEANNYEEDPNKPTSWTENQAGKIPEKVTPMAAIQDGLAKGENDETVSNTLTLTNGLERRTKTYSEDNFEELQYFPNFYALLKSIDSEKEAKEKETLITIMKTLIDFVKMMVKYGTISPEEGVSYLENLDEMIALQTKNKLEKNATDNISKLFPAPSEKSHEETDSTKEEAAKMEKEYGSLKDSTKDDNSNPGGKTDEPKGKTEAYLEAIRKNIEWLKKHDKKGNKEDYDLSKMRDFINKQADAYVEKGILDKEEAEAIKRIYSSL

Substance: MVLLRVLILLLSWAAGMGGQYGNPLNKYIRHYEGLSYNVDSLHQKHQRAKRAVSHEDQFLRLDFHAHGRHFNLRMKRDTSLFSDEFKVETSNKVLDYDTSHIYTGHIYGEEGSFSHGSVIDGRFEGFIQTRGGTFYVEPAERYIKDRTLPFHSVIYHEDDINYPHKYGPQGGCADHSVFERMRKYQMTGVEEVTQIPQEEHAANGPELLRKKRTTSAEKNTCQLYIQTDHLFFKYYGTREAVIAQISSHVKAIDTIYQTTDFSGIRNISFMVKRIRINTTADEKDPTNPFRFPNIGVEKFLELNSEQNHDDYCLAYVFTDRDFDDGVLGLAWVGAPSGSSGGICEKSKLYSDGKKKSLNTGIITVQNYGSHVPPKVSHITFAHEVGHNFGSPHDSGTECTPGESKNLGQKENGNYIMYARATSGDKLNNNKFSLCSIRNISQVLEKKRNNCFVESGQPICGNGMVEQGEECDCGYSDQCKDECCFDANQPEGRKCKLKPGKQCSPSQGPCCTAQCAFKSKSEKCRDDSDCAREGICNGFTALCPASDPKPNFTDCNRHTQVCINGQCAGSICEKYGLEECTCASSDGKDDKELCHVCCMKKMDPSTCASTGSVQWSRHFSGRTITLQPGSPCNDFRGYCDVFMRCRLVDADGPLARLKKAIFSPELYENIAEWIVAHWWAVLLMGIALIMLMAGFIKICSVHTPSSNPKLPPPKPLPGTLKRRRPPQPIQQPQRQRPRESYQMGHMRR
- percentage of EdU-negative (MCF7; [1]): 24.8 ± 1.8%
- percentage of EdU-negative (MCF7; [2]): 26.2 ± 1.3%
- percentage of EdU-negative (hTERT-HMEC; [1]): 6.02 ± 1.1%
- percentage of EdU-negative (hTERT-HMEC; [2]): 6.36 ± 1.3%

Substance: MKPLLVVFVFLFLWDPVLAGINSLSSEMHKKCYKNGICRLECYESEMLVAYCMFQLECCVKGNPAP [Q4QY38]
- percentage of EdU-negative (MCF7; [3]): 26.33 ± 0.082%
- percentage of EdU-negative (MCF7; protein concentration 0.225 µM): 27 ± 0.67%
- percentage of EdU-negative (hTERT-HMEC; [3]): 4.56 ± 0.45%
- percentage of EdU-negative (hTERT-HMEC; protein concentration 0.225 µM): 5.39 ± 1.7%

Substance: MDGWRRMPRWGLLLLLWGSCTFGLPTDTTTFKRIFLKRMPSIRESLKERGVDMARLGPEWSQPMKRLTLGNTTSSVILTNYMDTQYYGEIGIGTPPQTFKVVFDTGSSNVWVPSSKCSRLYTACVYHKLFDASDSSSYKHNGTELTLRYSTGTVSGFLSQDIITVGGITVTQMFGEVTEMPALPFMLAEFDGVVGMGFIEQAIGRVTPIFDNIISQGVLKEDVFSFYYNRDSENSQSLGGQIVLGGSDPQHYEGNFHYINLIKTGVWQIQMKGVSVGSSTLLCEDGCLALVDTGASYISGSTSSIEKLMEALGAKKRLFDYVVKCNEGPTLPDISFHLGGKEYTLTSADYVFQESYSSKKLCTLAIHAMDIPPPTGPTWALGATFIRKFYTEFDRRNNRIGFALAR
- percentage of EdU-negative (MCF7; protein concentration 0.007 µM): 27.1 ± 1.6%
- percentage of EdU-negative (MCF7; [4]): 24.9 ± 1.8%
- percentage of EdU-negative (MCF7; protein concentration 0.07 µM): 28.5 ± 1.1%
- percentage of EdU-negative (MCF7; [5]): 23.8 ± 2.5%
- percentage of EdU-negative (hTERT-HMEC; protein concentration 0.007 µM): 4.96 ± 0.18%
- percentage of EdU-negative (hTERT-HMEC; [4]): 5 ± 0.54%
- percentage of EdU-negative (hTERT-HMEC; protein concentration 0.07 µM): 6.37 ± 0.25%
- percentage of EdU-negative (hTERT-HMEC; [5]): 5.45 ± 0.35%

Substance: Q8WXD2
- percentage of EdU-negative (MCF7; [6]): 25.6 ± 3.6%
- percentage of EdU-negative (MCF7; [7]): 29.2 ± 1.7%
- percentage of EdU-negative (hTERT-HMEC; [6]): 5.59 ± 0.58%
- percentage of EdU-negative (hTERT-HMEC; [7]): 6.19 ± 0.24%

Substance: MAEAKTHWLGAALSLIPLIFLISGAEAASFQRNQLLQKEPDLRLENVQKFPSPEMIRALEYIENLRQQAHKEESSPDYNPYQGVSVPLQQKENGDESHLPERDSLSEEDWMRIILEALRQAENEPQSAPKENKPYALNSEKNFPMDMSDDYETQQWPERKLKHMQFPPMYEENSRDNPFKRTNEIVEEQYTPQSLATLESVFQELGKLTGPNNQKRERMDEEQKLYTDDEDDIYKANNIAYEDVVGGEDWNPVEEKIESQTQEEVRDSKENIEKNEQINDEMKRSGQLGIQEEDLRKESKDQLSDDVSKVIAYLKRLVNAAGSGRLQNGQNGERATRLFEKPLDSQSIYQLIEISRNLQIPPEDLIEMLKTGEKPNGSVEPERELDLPVDLDDISEADLDHPDLFQNRMLSKSGYPKTPGRAGTEALPDGLSVEDILNLLGMESAANQKTSYFPNPYNQEKVLPRLPYGAGRSRSNQLPKAAWIPHVENRQMAYENLNDKDQELGEYLARMLVKYPEIINSNQVKRVPGQGSSEDDLQEEEQIEQAIKEHLNQGSSQETDKLAPVSKRFPVGPPKNDDTPNRQYWDEDLLMKVLEYLNQEKAEKGREHIAKRAMENM
- percentage of EdU-negative (MCF7; protein concentration 0.006 µM): 26.9 ± 0.33%
- percentage of EdU-negative (MCF7; protein concentration 0.06 µM): 27.1 ± 1.7%
- percentage of EdU-negative (hTERT-HMEC; protein concentration 0.006 µM): 5.24 ± 0.54%
- percentage of EdU-negative (hTERT-HMEC; protein concentration 0.06 µM): 5.44 ± 0.097%

Source: the supplement of paper PMC11316812
